B1: Protein S100-G, P02633 (parent)
chain: MSAKKSPEELKGIFEKYAAKEGDPNQLSKEELKLLLQTEFPSLLKGPSTLDELFEELDKNGDGEVSFEEFQVLVKKISQ

Variants of: B1
Conditions: Bos taurus; pH 7; 25 °C; Urea; CD; PIPES-KOH 20 mM; reversible: yes; structure 1IGV; whole UniProt chain shown

| Variant | ddG of mutation (higher = less stable) [kcal/mol] | denaturant midpoint (higher = more stable) [M] | unfolding free energy [kcal/mol] |
| --- | --- | --- | --- |
| MSAKKSPEELKGIFEKYAAKEGNPNQLSKQELKLLLQTEFPSLLKGPSTLDELFEELDKNGDGEVSFEEFQVLVKKISQ | -0.52 | 5.8 | 0.81 |
| MSAKKSPEELKGIFEKYAAKQGNPNQLSKEELKLLLQTEFPSLLKGPSTLDELFEELDKNGDGEVSFEEFQVLVKKISQ | -1.19 | 6.2 | 1.48 |
| MSAKKSPEELKGIFEKYAAKQGDPNQLSKEELKLLLQTEFPSLLKGPSTLDELFEELDKNGDGEVSFEEFQVLVKKISQ | -0.38 | 5.6 | 0.67 |
| MSAKKSPEELKGIFEKYAAKQGNPNQLSKQELKLLLQTEFPSLLKGPSTLDELFEELDKNGDGEVSFEEFQVLVKKISQ | -0.93 | 6.1 | 1.22 |
